The labels stand for the following.
B1: wild-type Bacillus subtilis Spo0J (BsSpo0J) (natural protein)
chain: MAKGLGKGINALFNQVDLSEETVEEIKIADLRPNPYQPRKHFDDEALAELKESVLQHGILQPLIVRKSLKGYDIVAGERRFRAAKLAGLDTVPAIVRELSEALMREIALLENLQREDLSPLEEAQAYDSLLKHLDLTQEQLAKRLGKSRPHIANHLRLLTLPENIQQLIAEGTLSMGHGRTLLGLKNKNKLEPLVQKVIAEQLNVRQLEQLIQQLNQNVPRETKKKEPVKDAVLKERESYLQNYFGTTVNIKRQKKKGKIEIEFFSNEDLDRILELLSERES
B2: BsSpo0J R79A (natural protein)
chain: MAKGLGKGINALFNQVDLSEETVEEIKIADLRPNPYQPRKHFDDEALAELKESVLQHGILQPLIVRKSLKGYDIVAGEARFRAAKLAGLDTVPAIVRELSEALMREIALLENLQREDLSPLEEAQAYDSLLKHLDLTQEQLAKRLGKSRPHIANHLRLLTLPENIQQLIAEGTLSMGHGRTLLGLKNKNKLEPLVQKVIAEQLNVRQLEQLIQQLNQNVPRETKKKEPVKDAVLKERESYLQNYFGTTVNIKRQKKKGKIEIEFFSNEDLDRILELLSERES
B3: BsSpo0J R105E (natural protein)
chain: MAKGLGKGINALFNQVDLSEETVEEIKIADLRPNPYQPRKHFDDEALAELKESVLQHGILQPLIVRKSLKGYDIVAGERRFRAAKLAGLDTVPAIVRELSEALMEEIALLENLQREDLSPLEEAQAYDSLLKHLDLTQEQLAKRLGKSRPHIANHLRLLTLPENIQQLIAEGTLSMGHGRTLLGLKNKNKLEPLVQKVIAEQLNVRQLEQLIQQLNQNVPRETKKKEPVKDAVLKERESYLQNYFGTTVNIKRQKKKGKIEIEFFSNEDLDRILELLSERES
B4: BsSpo0J P62A (natural protein)
chain: MAKGLGKGINALFNQVDLSEETVEEIKIADLRPNPYQPRKHFDDEALAELKESVLQHGILQALIVRKSLKGYDIVAGERRFRAAKLAGLDTVPAIVRELSEALMREIALLENLQREDLSPLEEAQAYDSLLKHLDLTQEQLAKRLGKSRPHIANHLRLLTLPENIQQLIAEGTLSMGHGRTLLGLKNKNKLEPLVQKVIAEQLNVRQLEQLIQQLNQNVPRETKKKEPVKDAVLKERESYLQNYFGTTVNIKRQKKKGKIEIEFFSNEDLDRILELLSERES
B5: BsSpo0J G77S (natural protein)
chain: MAKGLGKGINALFNQVDLSEETVEEIKIADLRPNPYQPRKHFDDEALAELKESVLQHGILQPLIVRKSLKGYDIVASERRFRAAKLAGLDTVPAIVRELSEALMREIALLENLQREDLSPLEEAQAYDSLLKHLDLTQEQLAKRLGKSRPHIANHLRLLTLPENIQQLIAEGTLSMGHGRTLLGLKNKNKLEPLVQKVIAEQLNVRQLEQLIQQLNQNVPRETKKKEPVKDAVLKERESYLQNYFGTTVNIKRQKKKGKIEIEFFSNEDLDRILELLSERES

The data set concerns the molecule itself. The experiment in a line: SEC. Background: Size exclusion chromatography separates by hydrodynamic size, large species first.
As a reminder, the stoichiometry N is the number of molecules, sites or subunits per partner or assembly. On to B1, for which the “stoichiometry N” value came out at 2. Turning to B2, the “stoichiometry N” value was found to be 2. For B3, the “stoichiometry N” value stood at 2. To B4 belongs 2. Turning to B5, the “stoichiometry N” value was 2.

The values are drawn from paper PMC5499601 (Nucleic Acids Research, 2017).
